Target: ribosomal protein uS12 of Thermococcus celer (T. celer (endogenous in T. celer cells), UniProt P29161 1-147)
Assay: cryo-EM structure; post-splitting complex from 1 nmol T. celer 70S split by ABCE1^IIEA (8 uM), aPelota and aRF1 (5 uM each), 0.5 mM AMP-PNP, 50 mM HEPES-KOH pH 7.5, 30 mM KCl, 10 mM MgCl2, 2 mM DTT, 65 °C 15 min; cross-linked with 1% formaldehyde; 30S fractions of a 10-30% sucrose gradient
Conditions: both partners purified

binding result: binds
B1: ABCE1^IIEA (E238A/E485A), hydrolysis-deficient ABCE1 from Saccharolobus solfataricus (enzyme)
chain: MRVAVINYDFCKPDKCNLECINFCPVDRSGGKAIELSEIVKGKPVIYEETCIGCGICVKKCPYEAISIVNLPDELEGEVIHRYKVNGFKLFGLPTPKNNTILGVLGKNGVGKTTVLKILAGEIIPNFGDPNSKVGKDEVLKRFRGKEIYNYFKELYSNELKIVHKIQYVEYASKFLKGTVNEILTKIDERGKKDEVKELLNMTNLWNKDANILSGGGLQRLLVAASLLREADVYIFDAPSSYLDVRERMNMAKAIRELLKNKYVIVVDHDLIVLDYLTDLIHIIYGESSVYGRVSKSYAARVGINNFLKGYLPAENMKIRPDEIKFMLKEVSDLDLSKDLKTKMKWTKIIKKLGDFQLVVDNGEAKEGEIIGILGPNGIGKTTFARILVGEITADEGSVTPEKQILSYKPQRIFPNYDGTVQQYLENASKDALSTSSWFFEEVTKRLNLHRLLESNVNDLSGGELQKLYIAATLAKEADLYVLDAPSSYLDVEERYIVAKAIKRVTRERKAVTFIIDHDLSIHDYIADRIIVFKGEPEKAGLATSPVTLKTGMNEFLRELEVTFRRDAETGRPRVNKIGSYLDRVQKERGDYYS
notes: ABCE1, ABC-type twin-ATPase, Saccharolobus solfataricus; both catalytic glutamates changed to alanine; Carries iron-sulfur clusters (FeSD); also called ABCE1 E238A/E485A; source: E. coli, recombinant (pSA4 plasmid), purified

Reference: publication PMC7196836, “Molecular analysis of the ribosome recycling factor ABCE1 bound to the 30S post‐splitting complex” (The EMBO Journal, 2020)
